Test results taken from patent CN104892754A (INST OF MILITARY VETERINARY ACADEMY OF MILITARY MEDICAL …, dated 2015).

T1: 重组蛋白BontB(B型肉毒毒素轻链) (肉毒梭菌 (Clostridium botulinum), UniProt P10844 1-441)
T1 sequence: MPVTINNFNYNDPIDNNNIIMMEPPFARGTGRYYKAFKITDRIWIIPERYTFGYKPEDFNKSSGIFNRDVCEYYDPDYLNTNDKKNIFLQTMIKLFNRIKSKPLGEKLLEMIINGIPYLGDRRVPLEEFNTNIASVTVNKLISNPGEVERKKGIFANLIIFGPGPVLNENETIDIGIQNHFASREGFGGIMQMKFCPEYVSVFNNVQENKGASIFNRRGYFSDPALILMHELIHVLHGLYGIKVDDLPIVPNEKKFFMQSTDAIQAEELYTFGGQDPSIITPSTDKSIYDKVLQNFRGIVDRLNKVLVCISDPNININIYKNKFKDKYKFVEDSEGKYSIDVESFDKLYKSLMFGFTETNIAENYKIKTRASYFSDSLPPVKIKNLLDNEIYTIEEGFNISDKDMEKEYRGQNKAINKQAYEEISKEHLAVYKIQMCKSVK

B1: 抗B型肉毒毒素酶活性的人源单链抗体2F-scFv (scFv)
scFv: EVQLLESGGGLVQPGGSLRLSCAASGFTFSSYAMSWVRQAPGKGLEWVSSIASTGSNTAYADSVKGRFTISRNNSKNTLYLQMNSLRAEDTAVYYCAKGTGTFDYWGQGTLVTVSSGGGGSGGGGSGGGGSTDIQMTQSPSSLSASVGDRVTITCRASQSISSYLNWYQQKPGKAPKLLIYTASYLQSGVPSRFSGSGSGTDFTLTISSLQPEDFATYYCQQATTSPYTFGQGTKVEIKRAAAHHHHHHGAEQKLISEEDLNGAA
B2: 4C-scFv (scFv)
scFv: EVQLLESGGGLVQPGGSLRLSCAASGFTFSSYAMSWVRQAPGKGLEWVSGISPMGTRTSYADSVKGRFTISRDNSKNTLYLQMNSLRAEDTAVYYCAKNANGFDYWGQGTLVTVSSGGGGSGGGGSGGGGSTDIQMTQSPSSLSASVGDRVTITCRASQSISSYLNWYQQKPGKAPKLLIYRASVLQSGVPSRFSGSGSGETDFTLTISSLQPEDFATYYCQQRSRPPITFGQGTKVEIKRAAAHHHHHHGAAEQKLISEEDLNGAA
B3: 3A-scFv (scFv)
scFv: EVQLLESGGGLVQPGGSLRLSCAASGFTFSSYAMSWVRQAPGKGLEWVSNISSNGNATAYADSVKGRFTISRNNSKNTLYLQMNSLRAEDTAVYYCAKYTYAFDYWGQGTLVTVSSGGGGSGGGGSGGGGSTDIQMTQSPSSLSASVGDRVTITCRASQSISSYLNWYQQKPGKAPKLLIYYASNLQSGVPSRFSGSGSGTDFTLTISSLQPEDFATYYCQQDSYTPSTFGQGTKVEIKRAAAHHHHHHGAAEQKLISEEDLNGAA

Target: T1, 重组蛋白BontB(B型肉毒毒素轻链)

Binder | Ka [M⁻¹]
B1 | 1.15e+06
B2 | 438000
B3 | 535000
